# Reference: US20210388081A1 (Memorial Sloan Kettering, published 2021)
# T1: FcRL1, overexpressed on 3T3 cells (UniProt Q96LA6 17-429, limits assumed)
# T1 construct: whole, on cells
# T1 sequence (looked up): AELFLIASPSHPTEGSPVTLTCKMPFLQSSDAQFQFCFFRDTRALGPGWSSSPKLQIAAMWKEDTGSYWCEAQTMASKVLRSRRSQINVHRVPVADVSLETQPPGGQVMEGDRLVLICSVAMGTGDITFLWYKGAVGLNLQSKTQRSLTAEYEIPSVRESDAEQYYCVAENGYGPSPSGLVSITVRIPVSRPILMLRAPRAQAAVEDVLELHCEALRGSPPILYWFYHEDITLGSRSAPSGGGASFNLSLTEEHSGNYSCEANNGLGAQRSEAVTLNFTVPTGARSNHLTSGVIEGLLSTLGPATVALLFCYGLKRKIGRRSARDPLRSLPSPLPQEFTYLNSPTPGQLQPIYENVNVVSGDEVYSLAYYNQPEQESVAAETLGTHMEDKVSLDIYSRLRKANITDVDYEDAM
# T2: FcRL2, overexpressed on 3T3 cells (UniProt Q96LA5 20-508, limits assumed)
# T2 construct: whole, on cells
# T2 sequence (looked up): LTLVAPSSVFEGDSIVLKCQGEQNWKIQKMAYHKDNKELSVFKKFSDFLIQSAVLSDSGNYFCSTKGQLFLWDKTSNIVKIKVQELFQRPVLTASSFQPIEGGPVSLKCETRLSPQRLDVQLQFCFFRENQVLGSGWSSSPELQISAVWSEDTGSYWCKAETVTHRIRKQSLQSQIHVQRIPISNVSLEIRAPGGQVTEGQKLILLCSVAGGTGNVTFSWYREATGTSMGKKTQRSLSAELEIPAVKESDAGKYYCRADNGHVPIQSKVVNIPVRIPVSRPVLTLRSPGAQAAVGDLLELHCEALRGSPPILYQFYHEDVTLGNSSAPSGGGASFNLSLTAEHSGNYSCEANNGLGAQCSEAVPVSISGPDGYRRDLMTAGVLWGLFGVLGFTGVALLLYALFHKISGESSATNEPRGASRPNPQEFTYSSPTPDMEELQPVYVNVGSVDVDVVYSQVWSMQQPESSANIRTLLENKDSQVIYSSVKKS
# T3: FcRL4, overexpressed on 3T3 cells (UniProt Q96PJ5 20-515, limits assumed)
# T3 construct: whole, on cells
# T3 sequence (looked up): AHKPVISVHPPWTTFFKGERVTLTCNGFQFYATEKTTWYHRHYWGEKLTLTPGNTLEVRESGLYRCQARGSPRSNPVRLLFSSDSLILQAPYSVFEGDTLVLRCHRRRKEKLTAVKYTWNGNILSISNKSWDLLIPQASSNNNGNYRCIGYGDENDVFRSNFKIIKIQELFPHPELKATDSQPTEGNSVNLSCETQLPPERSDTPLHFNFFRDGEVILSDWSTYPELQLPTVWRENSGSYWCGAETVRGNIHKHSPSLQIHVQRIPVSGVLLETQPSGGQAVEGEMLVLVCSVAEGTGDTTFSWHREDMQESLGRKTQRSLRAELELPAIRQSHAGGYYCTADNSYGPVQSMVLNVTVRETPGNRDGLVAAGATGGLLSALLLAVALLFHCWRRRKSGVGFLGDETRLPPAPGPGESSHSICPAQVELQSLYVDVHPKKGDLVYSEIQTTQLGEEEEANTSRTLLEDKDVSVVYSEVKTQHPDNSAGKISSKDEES
# T4: Fc Receptor-like 5 (FcRL5), full length, overexpressed on 3T3 or Raji cells (human, UniProt Q96RD9 16-977)
# T4 construct: also called 3T3-FcRL5
# T4 sequence: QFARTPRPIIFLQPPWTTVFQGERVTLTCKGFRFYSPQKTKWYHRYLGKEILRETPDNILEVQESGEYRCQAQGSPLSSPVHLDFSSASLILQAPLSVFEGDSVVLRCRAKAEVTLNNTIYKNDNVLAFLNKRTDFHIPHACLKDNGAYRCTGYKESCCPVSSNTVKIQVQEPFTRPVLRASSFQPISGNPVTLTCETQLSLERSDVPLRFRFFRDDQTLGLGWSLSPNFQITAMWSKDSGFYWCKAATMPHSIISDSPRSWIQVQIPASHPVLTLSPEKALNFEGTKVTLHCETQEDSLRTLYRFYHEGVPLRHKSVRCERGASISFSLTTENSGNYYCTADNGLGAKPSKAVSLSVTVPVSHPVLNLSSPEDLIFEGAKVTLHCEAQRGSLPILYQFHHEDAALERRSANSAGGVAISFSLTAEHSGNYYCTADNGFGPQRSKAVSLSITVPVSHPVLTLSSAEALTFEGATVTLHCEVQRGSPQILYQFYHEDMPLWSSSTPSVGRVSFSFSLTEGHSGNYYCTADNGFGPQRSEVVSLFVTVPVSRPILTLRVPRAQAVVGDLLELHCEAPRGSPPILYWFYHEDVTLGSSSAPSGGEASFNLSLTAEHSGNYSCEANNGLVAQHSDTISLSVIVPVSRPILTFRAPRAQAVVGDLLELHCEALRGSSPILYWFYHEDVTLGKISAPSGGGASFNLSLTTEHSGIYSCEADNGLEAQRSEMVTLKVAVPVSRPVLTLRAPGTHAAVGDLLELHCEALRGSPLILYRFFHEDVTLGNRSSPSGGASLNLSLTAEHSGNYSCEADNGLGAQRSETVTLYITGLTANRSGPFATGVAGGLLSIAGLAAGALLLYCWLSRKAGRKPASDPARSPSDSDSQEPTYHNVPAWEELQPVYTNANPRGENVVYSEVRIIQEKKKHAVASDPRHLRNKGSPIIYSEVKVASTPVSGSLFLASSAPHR
# B1: ET200-008 (scFv)
# scFv: QSALTQPASVSGSPGQSITISCTGTSSDVGGYNYVSWYQQHPGKAPKLMIYDVSNRPSGVSNRFSGSKSGNTASLTISGLQAEDEADYYCSSYTSSSTSKVFGGGTKLTVLGSRGGGGSGGGGSGGGGSLEMAEVQLVESGGGVVRPGGSLRLSCAASGFTFGDYGMSWVRQAPGKGLEWVSGINWNGGSTGYADSVKGRFTISRDNAKNSLYLQMNSLRAEDTAVYYCARSKYNFHVYYDYWGQGTLVTVSSTSGQAGQHHHHHHGAYPYDVPDYAS
# notes: screened as phage clone; entry is VL-linker-VH-His tag-HA tag
# B2: ET200-110 (scFv)
# scFv: QSVLTQPPSASGTPGQRVTISCSGSSSNIGTNGVNWFQQFPGTAPKLLIYTNDQRPSGVPDRFSGSKSGTSASLAISGLQSADEADYYCAVWDHSLNGPVFGGGTKLTVLGSRGGGGSGGGGSGGGGSLEMAQVQLVQSGAEVKKPGSSVKVSCKASGGTFSSYAISWVRQAPGQGLEWMGGIIPIFGTANYAQKFQGRVTITADESTSTAYMELSSLRSEDTAVYYCARGAGFDAFDIWGQGTMVTVSSTSGQAGQHHHHHHGAYPYDVPDYAS
# notes: as for B1
# B3: ET200-115 (scFv)
# scFv: QSVLTQPPSVSGAPGQRVTISCTGSSSNIGARYDVHWYQQLPGTAPRLLISANYDRPSGVPDRFSGSKSGTSASLAITGLQAEDEADYYCQSYDSSVSAWVFGGGTKVTVLGSRGGGGSGGGGSGGGGSLEMAEVQLVQSGAEVKEPGASVRISCQASGYNFISYYMHWVRQAPGQGLEWMGTINPGSGETDYSQKLQGRVTMTRDPSTGTFDMGLSSLTSGDTAVYYCATGLIRGASDAFNIWGRGTMVTVSSTSGQAGQHHHHHHGAYPYDVPDYAS
# notes: as for B1
# B4: ET200-112 (scFv)
# scFv: QAVLTQPPSASGTPGQRVTISCSGSSSNIGSNTVNWYQQLPGTAPKLLMYSNDQRPSGVPDRFSGSKSGTSASLAISGLQSEDEADYYCAAWDDSLNGYVFAAGTQLTVLSSRGGGGSGGGGSGGGGSLEMAQVQLQQWGAGLLKPSETLSLTCAVYGGSFSGYYWSWIRQPPGKGLEWIGEINHSGSTNYNPSLKSRVTISVDTSKNQFSLKLSSVTAADTAVYYCAREGLDAFDIWGQGTMVTVSSTSGQAGQHHHHHHGAYPYDVPDYAS
# notes: as for B1
# B5: ET200-121 (scFv)
# scFv: QSVLTQPPSVSGAPGQRVTVSCTGSRSNIGAGYDVHWYQQLPGTAPKLLIYGNSNRPPGVPDRFSGSKSGTSASLVITGLQAEDAADYYCQSYDNTVRESPYVFGTGTKVTVLGSRGGGGSGGGGSGGGGSLEMAEVQLVQSGAEVKKPGASVKVSCKVSGYTLTELSMHWVRQAPGKGLEWMGGFDPEDGETIYAQKFQGRVTMTEDTSTDTAYMELSSLRSEDTAVYYCATESNLVSRHYYYYGMDVWGQGTTVTVSSTSGQAGQHHHHHHGAYPYDVPDYAS
# notes: as for B1
# B6: ET200-113 (scFv)
# scFv: QSVVTQPPSVSAAPGQKVTISCSGSSSNIGNNYVSWYQQLPGTAPKLLIYDNNKRPSGIPDRFSGSKSGTSATLGITGLQTGDEADYYCGTWDSSLSAAYVFGTGTKVTVLGSRGGGGSGGGGSGGGGSLEMAQVQLVQSGAEVKKPGASVKVSCKASGYSFTSYTISWVRQAPGQGLEWMGWVSTYNGLRNYAQNLQGRVTMTTDTLTTTAYMELRSLRSDDTAVYYCVREGSPDYGDFAAFDYWGQGTLVTVSSTSGQAGQHHHHHHGAYPYDVPDYAS
# notes: as for B1
# B7: ET200-116 (scFv)
# scFv: QPVLTQPPSVSVSPGQTAAIPCSGDKLGDKFASWYQQKPGQSPVLVIYQDTKRPSGIPERFSGSNSGNTATLTISGTQAMDEADYYCQTWASGIVVFGGGTKLTVLGSRGGGGSGGGGSGGGGSLEMAQVQLQQSGPGLVKPSQTLSLTCAISGDSVSSNSAAWNWIRQSPSRGLEWLGRTYYRSKWYNDYAVSVKSRITINPDTSKNQFSLQLNSVTPEDTAVYYCARERSGWKGFDYWGQGTLVTVSSTSGQAGQHHHHHHGAYPYDVPDYAS
# notes: as for B1
# B8: ET200-118 (scFv)
# scFv: QAVLTQPASVSGSPGQSITISCTGTSSDVGGYNYVSWYQQHPGKAPKLMIYEVSNRPSGVSNRFSGSKSGNTASLTISGLQAEDEADYYCSSYTSSSTPYVFGAGTKVTVLGSRGGGGSGGGGSGGGGSLEMAEVQLVESGGGLVQPGRSLRLSCAASGFTFDDYAMHWVRQAPGKGLEWVSGISWNSGSIGYADSVKGRFTISRDNAKNSLYLQMNSLRAEDTALYYCAKARWTAVASDHHFDYWGQGTLVTVSSTSGQAGQHHHHHHGAYPYDVPDYAS
# notes: as for B1
# Target: SLAMF9 protein (UniProt Q96A28 19-236, limits assumed)
# Sequence (Q96A28 19-236 limits assumed): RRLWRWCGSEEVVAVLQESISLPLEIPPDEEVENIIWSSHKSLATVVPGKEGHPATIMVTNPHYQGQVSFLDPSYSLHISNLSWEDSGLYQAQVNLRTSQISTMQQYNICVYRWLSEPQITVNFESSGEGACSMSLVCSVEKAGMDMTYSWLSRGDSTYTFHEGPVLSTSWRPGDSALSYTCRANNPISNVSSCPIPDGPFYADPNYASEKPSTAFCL
# Test: phage clone on SLAMF9 protein
row,Binder,binding result
1,B1,no binding
2,B2,no binding
3,B3,no binding
4,B4,no binding
5,B5,no binding
6,B6,no binding
7,B7,no binding
8,B8,no binding

# Target: T1, FcRL1, overexpressed on 3T3 cells
# Test: phage clone on 3T3-FcRL1 cells
row,Binder,binding result
1,B1,no binding
2,B2,no binding
3,B3,no binding
4,B4,no binding
5,B5,no binding
6,B6,no binding
7,B7,no binding
8,B8,no binding

# Target: T2, FcRL2, overexpressed on 3T3 cells
# Test: phage clone on 3T3-FcRL2 cells
row,Binder,binding result
1,B1,no binding
2,B2,no binding
3,B3,no binding
4,B4,no binding
5,B5,no binding
6,B6,no binding
7,B7,no binding
8,B8,no binding

# Target: T3, FcRL4, overexpressed on 3T3 cells
# Test: phage clone on 3T3-FcRL4 cells
row,Binder,binding result
1,B1,no binding
2,B2,no binding
3,B3,no binding
4,B4,no binding
5,B5,no binding
6,B6,no binding
7,B7,no binding
8,B8,no binding

# Target: T4, Fc Receptor-like 5 (FcRL5), full …
# Test: phage clone screening on cells
# Procedure, shortened: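 Cell-surface binding was read by flow cytometry using anti-M13 coat protein mAb and PE-labelled anti-mouse Ig. Selected scFv phage were screened on FcRL5-overexpressing 3T3 cells, with 3T3 lines bearing FcRL1, 2, 3, 4 or 6 as negative controls.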
row,Binder,binding result
1,B1,binds
2,B2,binds
3,B3,binds
4,B4,binds
5,B5,binds
6,B6,binds
7,B7,binds
8,B8,binds
